In paper PMC10397247 one finds interaction score data, which are given here for one molecule.

Common to all, as to test: two-hybrid library CCNG1;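 further: natural log of median RNA to DNA barcode read ratio; higher means stronger binding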
One experiment deals with T1, 4H342-bA.
T1 chain: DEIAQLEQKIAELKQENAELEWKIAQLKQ

In the next experiment the target is T2, 4H2745-bA.
T2 chain: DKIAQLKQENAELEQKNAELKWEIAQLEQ

The next experiment deals with T3, 4H3907-bA.
T3 chain: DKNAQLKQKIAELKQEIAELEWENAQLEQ

A further experiment concerns the target T4, 4H3070-bA.
T4 chain: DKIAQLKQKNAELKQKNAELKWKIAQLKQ

Another experiment deals with T5, 4H2691-bA.
T5 chain: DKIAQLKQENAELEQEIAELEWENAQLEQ

In the next experiment the target is T6, 4H470-bA.
T6 chain: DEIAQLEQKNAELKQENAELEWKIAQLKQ

For the next experiment, the target named is T7, 4H3961-bA.
T7 chain: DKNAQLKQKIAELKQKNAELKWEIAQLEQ

The target in the next experiment is T8, 4H2619-bA.
T8 chain: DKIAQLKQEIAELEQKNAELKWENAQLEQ

In the next experiment the target is T9, 4H363-bA.
T9 chain: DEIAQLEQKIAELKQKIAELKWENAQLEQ

The target in a further experiment is T10, 4H3129-bN.
T10 chain: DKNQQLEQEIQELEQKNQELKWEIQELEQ

In another experiment the target is T11, 4H3632-bA.
T11 chain: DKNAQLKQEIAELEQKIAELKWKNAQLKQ

Another experiment deals with T12, 4H344-bA.
T12 chain: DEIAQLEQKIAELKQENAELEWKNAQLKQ

For another experiment, the target named is T13, 4H496-bA.
T13 chain: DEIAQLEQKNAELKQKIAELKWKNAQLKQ

B1: 4H2619-bA (peptide)
chain: DKIAQLKQEIAELEQKNAELKWENAQLEQ
B1: the interaction score with 4H342-bA was 1.56; in the experiment with 4H2745-bA, -0.393; with 4H3907-bA it was -0.505; with 4H3070-bA, -0.983; with 4H2691-bA, -0.41; in the experiment with 4H470-bA it was -0.832. The interaction score with 4H3961-bA was -0.981; in the experiment with 4H2619-bA, 0.00432; with 4H363-bA, -0.409; in the experiment with 4H3129-bN, -2.48; with 4H3632-bA, -1.09; in the experiment with 4H344-bA, 2.12. Moreover, in the experiment with 4H496-bA, the interaction score is -0.573.
